Experimental findings from US20140011209 are described below.

The data set concerns the target PrP (prion protein) (UniProt P04156). The data set is described as follows: EMSA. Conditions: PrP form and source not stated.

For the sequence “GGGAGACAAGACUAGACGCUCAACUACGAACUCAUGACACAAGGAUGCAAUCUCAUCCCG [B-end (PrPSc binding region)]”, the Kd – broadly, the equilibrium constant for the complex coming apart – was 44.3 nM.
